3 molecules from patent publication US20140087995A1 (published 2014) can be followed below.

Test [1] has as its target T1, rat calcitonin receptor (rat, UniProt P32214 25-516).
T1 construct: whole, on cells; also called rCTR; rat calcitonin (a) receptor
T1 sequence (looked up): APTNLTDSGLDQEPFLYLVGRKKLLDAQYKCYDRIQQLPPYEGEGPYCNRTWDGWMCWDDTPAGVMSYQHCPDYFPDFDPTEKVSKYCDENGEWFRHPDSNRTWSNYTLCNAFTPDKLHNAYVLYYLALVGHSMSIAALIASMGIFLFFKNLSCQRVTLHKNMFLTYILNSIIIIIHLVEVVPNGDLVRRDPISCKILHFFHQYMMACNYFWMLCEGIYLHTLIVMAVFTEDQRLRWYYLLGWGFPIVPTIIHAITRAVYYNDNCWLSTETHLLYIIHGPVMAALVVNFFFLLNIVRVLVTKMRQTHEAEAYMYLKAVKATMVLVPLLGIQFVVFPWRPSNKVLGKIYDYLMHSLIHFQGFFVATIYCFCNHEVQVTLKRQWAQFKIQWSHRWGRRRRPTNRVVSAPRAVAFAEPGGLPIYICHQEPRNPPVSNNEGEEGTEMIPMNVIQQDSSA
Put plainly: SPA competition with 125I-calcitonin, membranes of BHK cells with rat calcitonin receptor (Assay VIII).

Test [2] addresses T2, rat amylin receptor (rat calcitonin receptor + rat RAMP 3) (rat, UniProt P32214 25-516; Q9JJ73 23-147).
T2 construct: whole, on cells; also called rAmylin-R; rat amylin 3(a) receptor
T2 sequence (looked up) 1: T1 sequence (looked up)
T2 sequence (looked up) 2: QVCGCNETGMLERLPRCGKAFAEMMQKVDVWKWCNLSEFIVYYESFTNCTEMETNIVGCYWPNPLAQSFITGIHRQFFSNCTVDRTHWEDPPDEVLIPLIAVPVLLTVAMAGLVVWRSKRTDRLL
Put plainly: SPA competition with 125I-rat amylin, membranes of BHK cells with rat calcitonin receptor + rat RAMP3 (Assay VI).

Test [3] has as its target T3, human calcitonin receptor (human, UniProt P30988 25-474).
T3 sequence (looked up): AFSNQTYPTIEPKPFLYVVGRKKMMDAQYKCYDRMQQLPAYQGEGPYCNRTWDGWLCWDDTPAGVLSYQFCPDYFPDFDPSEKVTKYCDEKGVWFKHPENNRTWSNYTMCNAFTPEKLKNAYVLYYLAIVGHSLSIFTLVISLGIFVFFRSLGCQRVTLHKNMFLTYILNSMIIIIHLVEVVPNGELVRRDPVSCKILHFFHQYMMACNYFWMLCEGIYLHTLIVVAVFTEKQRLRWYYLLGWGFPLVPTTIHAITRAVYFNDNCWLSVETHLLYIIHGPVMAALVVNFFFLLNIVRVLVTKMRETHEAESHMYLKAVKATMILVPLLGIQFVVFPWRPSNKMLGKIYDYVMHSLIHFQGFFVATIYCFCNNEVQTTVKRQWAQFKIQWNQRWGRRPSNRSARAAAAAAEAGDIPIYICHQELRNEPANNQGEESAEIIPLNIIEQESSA
Put plainly: cell-based or functional assay.

Test [4] has as its target T4, human amylin receptor (amylin 3(a) receptor: human calcitonin receptor co-expressed with RAMP-3) (human, UniProt P30988 25-474; O60896 24-148, limits assumed).
T4 sequence (looked up) 1: T3 sequence (looked up)
T4 sequence (looked up) 2: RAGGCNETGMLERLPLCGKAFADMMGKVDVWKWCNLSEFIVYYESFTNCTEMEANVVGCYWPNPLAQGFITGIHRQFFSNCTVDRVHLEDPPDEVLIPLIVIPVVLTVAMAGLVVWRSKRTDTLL
Put plainly: cell-based or functional assay.

The target in test [5] is T5, rat calcitonin receptor (rat, UniProt P32214 25-516).
T5 construct: whole, on cells; Used as membranes prepared from BHK tk'ts 13 cells transiently transfected with the rat calcitonin receptor (Assay VIII); also called rCTR; rat calcitonin (a) receptor
T5 sequence (looked up): T1 sequence (looked up)
Put plainly: SPA competition with 125I-calcitonin, membranes of BHK cells with rat CTR (Assay VIII).

For test [6], the target named is T6, rat amylin receptor (rat calcitonin receptor + rat RAMP 3) (rat, UniProt P32214 25-516; Q9JJ73 23-147).
T6 construct: whole, on cells; Used as membranes prepared from BHK tk'ts 13 cells transiently transfected with rat calcitonin receptor and rat RAMP 3 (Assay VI); also called rAmylin-R; rat amylin 3(a) receptor
T6 sequence (looked up) 1: T1 sequence (looked up)
T6 sequence (looked up) 2: T2 sequence (looked up) 2
Put plainly: SPA competition with 125I-rat amylin, membranes of BHK cells with rat CTR + rat RAMP3 (Assay VI). How it is done: The binding assay was performed using scintillation proximity assay (SPA) beads (RPNQ0001) from PerkinElmer and cell membranes from the Amylin 3(a)/CRE-luc cells (as described in Assay (II)) were used. Membranes were prepared in the following way; the cells were rinsed with PBS and incubated with Versene for approximately 5 min before harvesting. The cells were flushed with PBS and the cell-suspension was centrifuged for 5 min at 1000 rpm. Cells were homogenized (ultrathurrax) in a buffer containing 20 mM Na-HEPES and 10 mM EDTA (pH 7.4) and centrifuged at 20.000 rpm for 15 min. The resulting pellet was resuspended, homogenized and centrifuged (20.000 rpm, 15 min) in a buffer containing 20 mM Na-HEPES and 0.1 mM EDTA (pH 7.4, buffer 2). The resulting pellet was resuspended in buffer 2 and protein concentration was measured (BCA protein Assay, Pierce). The homogenate was kept cold during the whole procedure. The membranes were kept at −80° C. until use. The assay was performed in a 384 well Optiplate (PerkinElmer) in a total volume of 40 ul. Membranes were mixed with SPA beads. Final concentration of membranes 35 ng/μL final and SPA beads was 0.05 mg/well. Test-compounds were dissolved in DMSO and further diluted in assay buffer (50 mM Hepes, pH 7.4, 1 mM CaCl2, 5 mM MgCl₂, 0.1% OA and 0.02% Tween20). […] The final mixture was incubated with shaking at 400 rpm for 120 min at 25° C. prior to centrifugation (1500 rpm, 10 min). Samples were analyzed on TopCounter™ (Packard). The IC₅₀ was calculated using (one site binding competition analysis) GraphPad Prism5 as a measure of receptor affinity.
Cells were grown in DMEM with 10% FBS and 1% Pen/Strep. Approximately 48 hours after transfection, the cells were harvested and membranes were prepared.

Numbered stars: 1 amine (or outer) side, 2 acyl side, 3 side chain; on linkers, the order of the positions; unused ones are H or OH. Bridge positions count the residues as written; N and C are the ends. Side chains are listed from the residue outwards. Ends that are not written are not given here. * marks the point of attachment. C20 diacid = O=C(O)CCCCCCCCCCCCCCCCCCC(=O)*; γGlu = O=C(O)[C@H](CCC(=O)[*:2])N[*:1]

B1: N^ε1-[(4S)-4-carboxy-4-[[(4S)-4-carboxy-4-(19-carboxynonadecanoylamino)butanoyl]amino]butanoyl]-[Asp14,Arg17,Pro21,Pro27,Arg35]-h-amylin (peptide)
peptide: K([γGlu-γGlu-C20 diacid])CNTATCATQRLADFLRHSSPNFGAIPSSTNVGSRTY-NH2
modifications: disulfide 2-7; N-terminus assumed
SMILES: CC[C@H](C)[C@H](NC(=O)[C@H](C)NC(=O)CNC(=O)[C@H](Cc1ccccc1)NC(=O)[C@H](CC(N)=O)NC(=O)[C@@H]1CCCN1C(=O)[C@H](CO)NC(=O)[C@H](CO)NC(=O)[C@H](Cc1c[nH]cn1)NC(=O)[C@H](CCCNC(=N)N)NC(=O)[C@H](CC(C)C)NC(=O)[C@H](Cc1ccccc1)NC(=O)[C@H](CC(=O)O)NC(=O)[C@H](C)NC(=O)[C@H](CC(C)C)NC(=O)[C@H](CCCNC(=N)N)NC(=O)[C@H](CCC(N)=O)NC(=O)[C@@H](NC(=O)[C@H](C)NC(=O)[C@@H]1CSSC[C@H](NC(=O)[C@@H](N)CCCCNC(=O)CC[C@H](NC(=O)CC[C@H](NC(=O)CCCCCCCCCCCCCCCCCCC(=O)O)C(=O)O)C(=O)O)C(=O)N[C@@H](CC(N)=O)C(=O)N[C@@H]([C@@H](C)O)C(=O)N[C@@H](C)C(=O)N[C@@H]([C@@H](C)O)C(=O)N1)[C@@H](C)O)C(=O)N1CCC[C@H]1C(=O)N[C@@H](CO)C(=O)N[C@@H](CO)C(=O)N[C@H](C(=O)N[C@@H](CC(N)=O)C(=O)N[C@H](C(=O)NCC(=O)N[C@@H](CO)C(=O)N[C@@H](CCCNC(=N)N)C(=O)N[C@H](C(=O)N[C@@H](Cc1ccc(O)cc1)C(N)=O)[C@@H](C)O)C(C)C)[C@@H](C)O
notes: synthetic analogue of human amylin; also called compound 52
With B1, the IC50 (commonly the concentration needed to halve the response being measured) came out at 159 nM in test [1] and 0.335 nM in test [2].

B2: N^ε1-[(4S)-4-carboxy-4-[[(4S)-4-carboxy-4-(19-carboxynonadecanoylamino)butanoyl]amino]butanoyl]-[His14,Arg17,Pro21,Pro27]-h-amylin (peptide)
peptide: K([γGlu-γGlu-C20 diacid])CNTATCATQRLAHFLRHSSPNFGAIPSSTNVGSNTY-NH2
modifications: disulfide 2-7; N-terminus assumed
SMILES: CC[C@H](C)[C@H](NC(=O)[C@H](C)NC(=O)CNC(=O)[C@H](Cc1ccccc1)NC(=O)[C@H](CC(N)=O)NC(=O)[C@@H]1CCCN1C(=O)[C@H](CO)NC(=O)[C@H](CO)NC(=O)[C@H](Cc1c[nH]cn1)NC(=O)[C@H](CCCNC(=N)N)NC(=O)[C@H](CC(C)C)NC(=O)[C@H](Cc1ccccc1)NC(=O)[C@H](Cc1c[nH]cn1)NC(=O)[C@H](C)NC(=O)[C@H](CC(C)C)NC(=O)[C@H](CCCNC(=N)N)NC(=O)[C@H](CCC(N)=O)NC(=O)[C@@H](NC(=O)[C@H](C)NC(=O)[C@@H]1CSSC[C@H](NC(=O)[C@@H](N)CCCCNC(=O)CC[C@H](NC(=O)CC[C@H](NC(=O)CCCCCCCCCCCCCCCCCCC(=O)O)C(=O)O)C(=O)O)C(=O)N[C@@H](CC(N)=O)C(=O)N[C@@H]([C@@H](C)O)C(=O)N[C@@H](C)C(=O)N[C@@H]([C@@H](C)O)C(=O)N1)[C@@H](C)O)C(=O)N1CCC[C@H]1C(=O)N[C@@H](CO)C(=O)N[C@@H](CO)C(=O)N[C@H](C(=O)N[C@@H](CC(N)=O)C(=O)N[C@H](C(=O)NCC(=O)N[C@@H](CO)C(=O)N[C@@H](CC(N)=O)C(=O)N[C@H](C(=O)N[C@@H](Cc1ccc(O)cc1)C(N)=O)[C@@H](C)O)C(C)C)[C@@H](C)O
notes: also called compound 92
As for B2, in test [3], the “hCTR funct. EC50” value is 2.38 nM. Further, in test [4], the “Ratio hCT/hAmylin funct.” value was 28 and the “hAmylin-R funct. EC50” value turned out to be 0.085 nM.

B3: N^ε1-[(4S)-4-carboxy-4-[[(4S)-4-carboxy-4-(19-carboxynonadecanoylamino)butanoyl]amino]butanoyl]-[Asp14,Arg17,Pro21,Pro27,Arg35]-h-amylin (peptide)
peptide: K([γGlu-γGlu-C20 diacid])CNTATCATQRLADFLRHSSPNFGAIPSSTNVGSRTY-NH2
modifications: disulfide 2-7; N-terminus assumed
SMILES: CC[C@H](C)[C@H](NC(=O)[C@H](C)NC(=O)CNC(=O)[C@H](Cc1ccccc1)NC(=O)[C@H](CC(N)=O)NC(=O)[C@@H]1CCCN1C(=O)[C@H](CO)NC(=O)[C@H](CO)NC(=O)[C@H](Cc1c[nH]cn1)NC(=O)[C@H](CCCNC(=N)N)NC(=O)[C@H](CC(C)C)NC(=O)[C@H](Cc1ccccc1)NC(=O)[C@H](CC(=O)O)NC(=O)[C@H](C)NC(=O)[C@H](CC(C)C)NC(=O)[C@H](CCCNC(=N)N)NC(=O)[C@H](CCC(N)=O)NC(=O)[C@@H](NC(=O)[C@H](C)NC(=O)[C@@H]1CSSC[C@H](NC(=O)[C@@H](N)CCCCNC(=O)CC[C@H](NC(=O)CC[C@H](NC(=O)CCCCCCCCCCCCCCCCCCC(=O)O)C(=O)O)C(=O)O)C(=O)N[C@@H](CC(N)=O)C(=O)N[C@@H]([C@@H](C)O)C(=O)N[C@@H](C)C(=O)N[C@@H]([C@@H](C)O)C(=O)N1)[C@@H](C)O)C(=O)N1CCC[C@H]1C(=O)N[C@@H](CO)C(=O)N[C@@H](CO)C(=O)N[C@H](C(=O)N[C@@H](CC(N)=O)C(=O)N[C@H](C(=O)NCC(=O)N[C@@H](CO)C(=O)N[C@@H](CCCNC(=N)N)C(=O)N[C@H](C(=O)N[C@@H](Cc1ccc(O)cc1)C(N)=O)[C@@H](C)O)C(C)C)[C@@H](C)O
notes: Analogue of human amylin; also called compound 52
Regarding B3, the results for the IC50 in test [5] and in test [6] were 159 nM and 0.335 nM, respectively.
